For this assay, the target named is SARS-CoV-2 spike protein (SARS-CoV-2, UniProt P0DTC2 14-1213).

B1: M4-4 (antibody, V domains shown)
VH: EVQLVESGGGLVKPGGSLRLSCAASGFTFSSRGMSWVRQAPGKGLEWVSTISFGDIYTYYPDSVKGRFTISRDNAKNSLYLQMNSLRAEDTAVYYCARPNDGYFDYWGQGTLVTVSS
VL: DIVMTQSPATLSVSPGERATLSCKASQDVSTDVAWYQQKPGQAPRLLIYWASTRHTGVPDRFSGSGSGTDFTLTISSLQSEDFAVYYCQQHYSTPWTFGGGTKVEIKR
As for B1, the “dissociation constant against REGN10933 and REGN10987” value was ~10 fold.

These data come from patent publication US20230417748A1 (GREEN CROSS, published 2023).
